Measurements taken from publication PMC10714992, “A monoclonal antibody targeting spore wall protein 1 inhibits the proliferation of Nosema bombycis in Bombyx mori” (Microbiology Spectrum, 2023).

What was measured:
[1] = target: T1, recombinant GST-SWP1 fusion protein (Nosema bombycis CVCC 102059, UniProt B3STN5); assay: ELISA; indirect ELISA: plates coated with recombinant GST-SWP1 (0.3 ug/well) overnight at 4 C, recombinant 6xHis-tagged antibodies from baculovirus added for 1 h at room temperature, detected with anti-6xHis rabbit mAb; titer; conditions: both partners purified
T1 construct: spore wall protein 1 (SWP1) of Nosema bombycis, gene cloned by PCR into pGEX-4T-1 (BamH I / XhoI); also called rGST-SWP1; source: E. coli Rosetta, pGEX-4T-1, purified (Glutathione Sepharose)
T1 sequence (B3STN5 20-278): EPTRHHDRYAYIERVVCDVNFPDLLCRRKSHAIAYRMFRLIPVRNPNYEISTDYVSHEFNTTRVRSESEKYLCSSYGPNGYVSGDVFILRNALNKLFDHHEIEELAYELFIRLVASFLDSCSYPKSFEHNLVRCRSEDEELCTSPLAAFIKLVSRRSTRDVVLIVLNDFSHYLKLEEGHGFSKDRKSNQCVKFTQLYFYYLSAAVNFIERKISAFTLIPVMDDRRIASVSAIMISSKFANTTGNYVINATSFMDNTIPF

[2] = target: T2, prokaryotic-expressed recombinant SWP1 (Nosema bombycis CVCC 102059, UniProt B3STN5); assay: Western blot; rSWP1 separated by SDS-PAGE; hemolymph or cell lysate of transgenic silkworms used as primary antibody; conditions: one partner purified
T2 construct: spore wall protein 1 (SWP1) of Nosema bombycis, gene cloned by PCR from cDNA into pET30a (BamH I / HindIII); also called rSWP1; source: E. coli Rosetta, pET30a, purified (Ni-NTA)
T2 sequence (B3STN5 20-278): as above

[3] = target: T3, Nosema bombycis spore wall protein 1, native (Nosema bombycis (strain CQ1 / CVCC …, UniProt B3STN5)); assay: Western blot; alkali-soluble germination (spore) proteins separated by SDS-PAGE on PVDF; culture supernatant or lysate of G9-Neo, scFvG9-Neo and NscFvG9-Neo BmE cells used as primary antibody; conditions: partners not purified
T3 construct: spore wall protein 1 (SWP1) of Nosema bombycis, gene locus NBO_552g0005; also called SWP1; native SWP1
T3 sequence (B3STN5 20-278): as above

Row | Binder | binding result [2] | binding result [3] | other results
1 | recombinant scFvG9 from the baculovirus expression system (scFv, V domains shown, variable domain of the heavy chain of m1; (G4S)3 linker; variable domain of the light chain of m1; The construct contains a signal peptide and a 6xHis tag; Detected in the ELISA by an anti-6xHis antibody; also called rscFvG9; pFast-rscFvG9; source: Bac-to-Bac baculovirus system, insect cells (Sf-900 III / Sf9), serum-free medium, purified (Ni-NTA); not shown: His6, C-terminal, kept) VH: QVQLQQSGAELARPGASVKMSCKASGYTFTGFSIHWVKQRPGQGLEWIGYINPSSAYTKYNQNFKDKATLTADKSSSTAYMQLNSLTSDDSAVYYCAYRYDVGDYWGQGTSVTVSS VL: DIVITQSPSSLAVSAGEKVTLSCKSSQSLFNSRTRKNYLAWYQQKPGQSPKLLIYWASTRESGVPDRFTGSGSGTDFTLTISSVQAEDLAVYYCKQSYYLWTFGGGAKLEIK |  |  | binding result [1]: binds
2 | scFvG9 expressed in scFvG9 transgenic silkworm (scFv, V domains shown, variable domain of the heavy chain of m1; (G4S)3 linker; variable domain of the light chain of m1; Same IE1-scFvG9-SV40 cassette as m3, which encodes a secretion signal peptide; also called scFv9; source: transgenic silkworm (Bombyx mori), hemolymph) VH: QVQLQQSGAELARPGASVKMSCKASGYTFTGFSIHWVKQRPGQGLEWIGYINPSSAYTKYNQNFKDKATLTADKSSSTAYMQLNSLTSDDSAVYYCAYRYDVGDYWGQGTSVTVSS VL: DIVITQSPSSLAVSAGEKVTLSCKSSQSLFNSRTRKNYLAWYQQKPGQSPKLLIYWASTRESGVPDRFTGSGSGTDFTLTISSVQAEDLAVYYCKQSYYLWTFGGGAKLEIK | binds |  | 
3 | recombinant G9 intact antibody (rG9H + rG9L) from the baculovirus expression system (antibody, V domains shown, as the heavy chain of m1 (rG9H); as the light chain of m1 (rG9L); rG9H contains a signal peptide at the 5' end and is driven by the polyhedrin promoter; rG9L is driven by the p10 promoter; Detected in the ELISA by an anti-6xHis antibody; also called pFast-rG9; source: Bac-to-Bac baculovirus system, insect cells (Sf-900 III / Sf9), serum-free medium, purified (Ni-NTA); not shown: His6, C-terminal, …) VH: QVQLQQSGAELARPGASVKMSCKASGYTFTGFSIHWVKQRPGQGLEWIGYINPSSAYTKYNQNFKDKATLTADKSSSTAYMQLNSLTSDDSAVYYCAYRYDVGDYWGQGTSVTVSS VL: DIVITQSPSSLAVSAGEKVTLSCKSSQSLFNSRTRKNYLAWYQQKPGQSPKLLIYWASTRESGVPDRFTGSGSGTDFTLTISSVQAEDLAVYYCKQSYYLWTFGGGAKLEIK |  |  | binding result [1]: binds
4 | NscFvG9 expressed in NscFvG9 transgenic silkworm (scFv, V domains shown, variable domain of the heavy chain of m1; (G4S)3 linker; variable domain of the light chain of m1; Same IE1-NscFvG9-SV40 cassette as m4 (no signal peptide), in pBac[3xP3-EGFP]; also called NscFv9; source: transgenic silkworm (Bombyx mori), cell lysate) VH: QVQLQQSGAELARPGASVKMSCKASGYTFTGFSIHWVKQRPGQGLEWIGYINPSSAYTKYNQNFKDKATLTADKSSSTAYMQLNSLTSDDSAVYYCAYRYDVGDYWGQGTSVTVSS VL: DIVITQSPSSLAVSAGEKVTLSCKSSQSLFNSRTRKNYLAWYQQKPGQSPKLLIYWASTRESGVPDRFTGSGSGTDFTLTISSVQAEDLAVYYCKQSYYLWTFGGGAKLEIK | binds |  | 
5 | G9 intact antibody expressed in G9 transgenic silkworm (antibody, V domains shown, as the heavy chain of m1 (G9H); as the light chain of m1 (G9L); Same IE1-G9H-SV40 + IE1-G9L-SV40 cassettes as m2, in pBac[A3-EGFP]; G9H has a signal peptide at the 5' end; It is not clear whether the light chain also carries a signal peptide and His tag; source: transgenic silkworm (Bombyx mori), hemolymph and cell lysate) VH: QVQLQQSGAELARPGASVKMSCKASGYTFTGFSIHWVKQRPGQGLEWIGYINPSSAYTKYNQNFKDKATLTADKSSSTAYMQLNSLTSDDSAVYYCAYRYDVGDYWGQGTSVTVSS VL: DIVITQSPSSLAVSAGEKVTLSCKSSQSLFNSRTRKNYLAWYQQKPGQSPKLLIYWASTRESGVPDRFTGSGSGTDFTLTISSVQAEDLAVYYCKQSYYLWTFGGGAKLEIK | binds |  | 
6 | NscFvG9 expressed in NscFvG9-Neo transgenic BmE cells (scFv, V domains shown, variable domain of the heavy chain of m1; (G4S)3 linker; variable domain of the light chain of m1; scFvG9 with the signal peptide of VH removed, expressed intracellularly; also called scFv without the secretory signal peptide) VH: QVQLQQSGAELARPGASVKMSCKASGYTFTGFSIHWVKQRPGQGLEWIGYINPSSAYTKYNQNFKDKATLTADKSSSTAYMQLNSLTSDDSAVYYCAYRYDVGDYWGQGTSVTVSS VL: DIVITQSPSSLAVSAGEKVTLSCKSSQSLFNSRTRKNYLAWYQQKPGQSPKLLIYWASTRESGVPDRFTGSGSGTDFTLTISSVQAEDLAVYYCKQSYYLWTFGGGAKLEIK |  | binds | 
7 | G9 intact antibody expressed in G9-Neo transgenic BmE cells (antibody, V domains shown, as the heavy chain of m1 (G9H); as the light chain of m1 (G9L); G9H was amplified with a signal peptide at the 5' end and a 6xHis tag at the 3' end; The light chain was made 'similarly', so it is not clear whether it also carries them; IE1 promoter; also called G9H + G9L) VH: QVQLQQSGAELARPGASVKMSCKASGYTFTGFSIHWVKQRPGQGLEWIGYINPSSAYTKYNQNFKDKATLTADKSSSTAYMQLNSLTSDDSAVYYCAYRYDVGDYWGQGTSVTVSS VL: DIVITQSPSSLAVSAGEKVTLSCKSSQSLFNSRTRKNYLAWYQQKPGQSPKLLIYWASTRESGVPDRFTGSGSGTDFTLTISSVQAEDLAVYYCKQSYYLWTFGGGAKLEIK |  | binds | 
8 | scFvG9 expressed in scFvG9-Neo transgenic BmE cells (scFv, V domains shown, variable domain of the heavy chain of m1; (G4S)3 linker; variable domain of the light chain of m1; The construct encodes an N-terminal secretion signal peptide from the CL40 anti-EBV/HHV-4 gHgL immunoglobulin heavy chain) VH: QVQLQQSGAELARPGASVKMSCKASGYTFTGFSIHWVKQRPGQGLEWIGYINPSSAYTKYNQNFKDKATLTADKSSSTAYMQLNSLTSDDSAVYYCAYRYDVGDYWGQGTSVTVSS VL: DIVITQSPSSLAVSAGEKVTLSCKSSQSLFNSRTRKNYLAWYQQKPGQSPKLLIYWASTRESGVPDRFTGSGSGTDFTLTISSVQAEDLAVYYCKQSYYLWTFGGGAKLEIK |  | binds | 
